Experimental data: paper PMC9352680, “A comprehensive thermodynamic model for RNA binding by the Saccharomyces cerevisiae Pumilio protein PUF4”

T1: PUF4 RNA-binding domain (Saccharomyces cerevisiae, UniProt P25339 537-888)
T1 sequence: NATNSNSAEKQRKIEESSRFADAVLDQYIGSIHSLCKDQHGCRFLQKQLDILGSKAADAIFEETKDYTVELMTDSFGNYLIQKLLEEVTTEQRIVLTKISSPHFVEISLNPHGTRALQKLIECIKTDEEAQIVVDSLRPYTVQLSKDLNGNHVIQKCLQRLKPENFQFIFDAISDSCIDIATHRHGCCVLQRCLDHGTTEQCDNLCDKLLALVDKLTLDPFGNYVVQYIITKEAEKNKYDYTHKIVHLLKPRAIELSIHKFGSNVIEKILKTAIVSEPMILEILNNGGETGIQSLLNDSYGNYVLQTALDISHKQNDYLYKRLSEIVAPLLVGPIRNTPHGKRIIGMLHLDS

B1: Ie_S1_P5E.1_K5.1_C5.1_H5.1_[+4CTT]_A5.1_F5.1_T5.1 (ssRNA)
RNA: UCUCUUUGUACUUUUAUUAUCUCUU
B2: Ie_S1_P5E.1_K5.1_C5.1_H5.1_[+3CTCTC]_A5.1_F5.1_T5.1 (ssRNA)
RNA: UCUCUUUGUCUCUCAUUAUUAUCUCUU
B3: Ie_S1_P5E.1_K5.1_C5.1_H5.1_[+3CCC]_A5.1_F5.1_T5.1 (ssRNA)
RNA: UCUCUUUGUCCCAUUAUUAUCUCUU
B4: Ie_S1_P5E.1_K5.1_C5.1_H5.1_[+2TCTC]_A5.1_F5.1_T5.1 (ssRNA)
RNA: UCUCUUUGUCUCUAUUAUUAUCUCUU
B5: Ie_S1_P5E.1_K5.1_C5.1_H5.1_[+2TC]_A5.1_F5.1_T5.1 (ssRNA)
RNA: UCUCUUUGUCUAUUAUUAUCUCUU
B6: Ie_S1_P5E.1_K5.1_C5.1_H5.1_[+1TCT]_A5.1_F5.1_T5.1 (ssRNA)
RNA: UCUCUUUUCUGUAUUAUUAUCUCUU
B7: Ie_S1_P5E.1_K5.1_C5.1_H5.1_[+3TCTC]_A5.1_F5.1_T5.1 (ssRNA)
RNA: UCUCUUUGUUCUCAUUAUUAUCUCUU
B8: Ie_S1_P5E.1_K5.1_C5.1_H5.1_[+2CTT]_A5.1_F5.1_T5.1 (ssRNA)
RNA: UCUCUUUGCUUUAUUAUUAUCUCUU
B9: Ie_S1_P5E.1_K5.1_C5.1_H5.1_[+3CTC]_A5.1_F5.1_T5.1 (ssRNA)
RNA: UCUCUUUGUCUCAUUAUUAUCUCUU
B10: Ie_S1_P5E.1_K5.1_C5.1_H5.1_[+3CCTCT]_A5.1_F5.1_T5.1 (ssRNA)
RNA: UCUCUUUGUCCUCUAUUAUUAUCUCUU
B11: Ie_S1_P5E.1_K5.1_C5.1_H5.1_[+1CTC]_A5.1_F5.1_T5.1 (ssRNA)
RNA: UCUCUUUCUCGUAUUAUUAUCUCUU
B12: Ie_S1_P5E.1_K5.1_C5.1_H5.1_[+4TCC]_A5.1_F5.1_T5.1 (ssRNA)
RNA: UCUCUUUGUAUCCUUAUUAUCUCUU
B13: Ie_S1_P5E.1_K5.1_C5.1_H5.1_[+3TTCC]_A5.1_F5.1_T5.1 (ssRNA)
RNA: UCUCUUUGUUUCCAUUAUUAUCUCUU
B14: Ie_S1_P5E.1_K5.1_C5.1_H5.1_[+1TTC]_A5.1_F5.1_T5.1 (ssRNA)
RNA: UCUCUUUUUCGUAUUAUUAUCUCUU
B15: Ie_S1_P5E.1_K5.1_C5.1_H5.1_[+1CTCT]_A5.1_F5.1_T5.1 (ssRNA)
RNA: UCUCUUUCUCUGUAUUAUUAUCUCUU
B16: Ie_S1_P5E.1_K5.1_C5.1_H5.1_[+2T]_A5.1_F5.1_T5.1 (ssRNA)
RNA: UCUCUUUGUUAUUAUUAUCUCUU
B17: Ie_S1_P5E.1_K5.1_C5.1_H5.1_[+1CCTCT]_A5.1_F5.1_T5.1 (ssRNA)
RNA: UCUCUUUCCUCUGUAUUAUUAUCUCUU
B18: Ie_S1_P5E.1_K5.1_C5.1_H5.1_[+2CT]_A5.1_F5.1_T5.1 (ssRNA)
RNA: UCUCUUUGCUUAUUAUUAUCUCUU
B19: Ie_S1_P5E.1_K5.1_C5.1_H5.1_[+3TTCCT]_A5.1_F5.1_T5.1 (ssRNA)
RNA: UCUCUUUGUUUCCUAUUAUUAUCUCUU
B20: Ie_S1_P5E.1_K5.1_C5.1_H5.1_[+1TTT]_A5.1_F5.1_T5.1 (ssRNA)
RNA: UCUCUUUUUUGUAUUAUUAUCUCUU
B21: Ie_S1_P5E.1_K5.1_C5.1_H5.1_[+1CCCTT]_A5.1_F5.1_T5.1 (ssRNA)
RNA: UCUCUUUCCCUUGUAUUAUUAUCUCUU
B22: Ie_S1_P5E.1_K5.1_C5.1_H5.1_[+1TTCC]_A5.1_F5.1_T5.1 (ssRNA)
RNA: UCUCUUUUUCCGUAUUAUUAUCUCUU
B23: Ie_S1_P5E.1_K5.1_C5.1_H5.1_[+3TCC]_A5.1_F5.1_T5.1 (ssRNA)
RNA: UCUCUUUGUUCCAUUAUUAUCUCUU
B24: Ie_S1_P5E.1_K5.1_C5.1_H5.1_[+3TC]_A5.1_F5.1_T5.1 (ssRNA)
RNA: UCUCUUUGUUCAUUAUUAUCUCUU
B25: Ie_S1_P5E.1_K5.1_C5.1_H5.1_[+3CCCT]_A5.1_F5.1_T5.1 (ssRNA)
RNA: UCUCUUUGUCCCUAUUAUUAUCUCUU
B26: Ie_S1_P5E.1_K5.1_C5.1_H5.1_[+3TTT]_A5.1_F5.1_T5.1 (ssRNA)
RNA: UCUCUUUGUUUUAUUAUUAUCUCUU
B27: Ie_S1_P5E.1_K5.1_C5.1_H5.1_[+1TCTC]_A5.1_F5.1_T5.1 (ssRNA)
RNA: UCUCUUUUCUCGUAUUAUUAUCUCUU
B28: Ie_S1_P5E.1_K5.1_C5.1_H5.1_[+1CTT]_A5.1_F5.1_T5.1 (ssRNA)
RNA: UCUCUUUCUUGUAUUAUUAUCUCUU
B29: Ie_S1_P5E.1_K5.1_C5.1_H5.1_[+1CCC]_A5.1_F5.1_T5.1 (ssRNA)
RNA: UCUCUUUCCCGUAUUAUUAUCUCUU
B30: Ie_S1_P5E.1_K5.1_C5.1_H5.1_[+3TCT]_A5.1_F5.1_T5.1 (ssRNA)
RNA: UCUCUUUGUUCUAUUAUUAUCUCUU

Each binder was assayed against T1, PUF4 RNA-binding domain (assay: Mg; RNA-MaP; 20 mM Na-HEPES pH 7.4, 30 mM KOAc, 0.75 mM MgCl2, 0.1% Tween-20, 5% glycerol, 0.1 mg/mL BSA, 2 mM DTT; 25 C; 0.0125-409.6 nM protein). Settings: tags: N-His6-TEV cleaved; C-SNAP kept, Cy3B-labelled; label: tethered on chip by stalled RNA polymerase.
Work on B1 yielded a Kd of 4.31 nM.
Binder B2 has a Kd of 1410 nM.
In the case of B3, the Kd is reported as 66.2 nM.
With B4 the Kd was 405 nM.
B5 showed a Kd of 18.6 nM.
For B6, the Kd was 4.9 nM.
B7 was tested, and the Kd was 456 nM.
B8 showed a Kd of 1920 nM.
B9 gave a Kd of 36.6 nM.
In the case of B10, the Kd is reported as 397 nM.
B11 gave a Kd of 1250 nM.
With B12 the Kd was 11 nM.
For B13, the Kd was 126 nM.
With B14 the Kd was 1620 nM.
For B15, the Kd was 7.73 nM.
Work on B16 yielded a Kd of 64.9 nM.
In the case of B17, the Kd is reported as 4.35 nM.
B18 was tested, and the Kd was 2090 nM.
With B19 the Kd was 139 nM.
For B20, the Kd was 6.28 nM.
Work on B21 yielded a Kd of 5.34 nM.
B22 was tested, and the Kd was greater than 2300 nM.
In the case of B23, the Kd is reported as 36.5 nM.
For B24, the Kd was 10.9 nM.
In the case of B25, the Kd is reported as 1100 nM.
B26 was tested, and the Kd was 28.2 nM.
For B27, the Kd was 1230 nM.
Work on B28 yielded a Kd of 4.33 nM.
B29 was tested, and the Kd was 1340 nM.
In the case of B30, the Kd is reported as 32.9 nM.
